Results taken from patent publication US20220177841A1, “EX VIVO METHODS FOR PRODUCING A T CELL THERAPEUTIC AND RELATED COMPOSITIONS AND METHODS” (Myst Therapeutics LLC, priority 2019, published 2022).

Tested on: expanded human T cells from three healthy donors
Assay: T cell adjuvant high throughput screen, total viable CD3+ cell count
Type: cell-based
Conditions: 62.5 IU/ml-1000 IU/ml; 6 days
Protocol: Cells were expanded from PBMC derived from Ficoll gradient separation from three healthy donor's apheresis material. […] Cells were next seeded into gas permeable 100M culture vessels and expanded for 7-14 days to achieve a large bank of T cells, and cryopreserved. […] Half of wells were additionally supplemented with 50 ng/mL OKT3, a human anti-CD3 monoclonal antibody. In total, 15 test adjuvant agents were tested for their impact on cell viability in the presence and absence of anti-CD3 activation (see Table E3). Cells were cultured for 6 days total, including a 50% medium exchange on culture day 3, and monitored for total viable CD3+ cell count.
Total viable CD3+ cell count for cells grown in the absence and presence of OKT3 stimulation are shown in FIGS. 27A-C and FIGS. 28A-C, respectively. The results shown are for the following concentrations of adjuvant: 10 μg/mL for tested antibodies (Tavolixizumab, Oxelumab, Ipilimumab, Tocilizumab, Urelumab, Pembrolizumab, Varlilumab, anti-GITR MK-1248, anto-human FasL); 25 μM for Z-VAD-FMK pan-caspase inhibitor; 250 nM for HSP inhibitor NVP-HSP990; and 1000 IU/mL for cytokine (IL-7, IL-15 or IL-21).

B1: IL-7: recombinant cytokine tested as T cell adjuvant (protein, UniProt P13232 26-177, looked up)
Interleukin-7: DCDIEGKDGKQYESVLMVSIDQLLDSMKEIGSNCLNNEFNFFKRHICDANKEGMFLFRAARKLRQFLKMNSTGDFDLHLLKVSEGTTILLNCTGQVKGRKPAALGEAQPTKSLEENKSLKEQKKLNDLCFLKRLLQEIKTCWNKILMGTKEH
- dose response, cell number: cell number increased with increasing concentration
